# Reference: patent publication US20220162312A1 (WUXI BIOLOGICS IRELAND, published 2022)
# Numbering of substitutions follows the chain as printed. Names may count otherwise.
# B1: W3278-U2T3.F18R-1.uIgG4.SP (bispecific antibody)
# heavy 1: QVQLQQPGAELVKPGASVKMSCKASGYTFTSYNMHWVKQTPGRGLEWIGAIYPGNGDTSYNQKFKGKATLTADKSSSTAYMQLSSLTSEDSAVYYCARSTYYGGDWYFNVWGAGTTVTVSAASTKGPSVFPLAPCSRSTSESTAALGCLVKDYFPEPVTVSWNSGALTSGVHTFPAVLQSSGLYSLSSVVTVPSSSLGTKTYTCNVDHKPSNTKVDKRVGGGGSGGGGSQVQLVQSGAEVKKPGSSVKVSCKASGFAFTDYYIHWVRQAPGQGLEWMGWISPGNVNTKYNENFKGRVTITADKSTSTAYMELSSLRSEDTAVYYCARDGYSLYYFDYWGQGTLVTVLEDLKNVFPPEVAVFEPSEAEISHTQKATLVCLATGFYPDHVELSWWVNGKEVHSGVCTDPQPLKEQPALQDSRYALSSRLRVSATFWQNPRNHFRCQVQFYGLSENDEWTQDRAKPVTQIVSAEAWGRYGPPCPPCPAPEFLGGPSVFLFPPKPKDTLMISRTPEVTCVVVDVSQEDPEVQFNWYVDGVEVHNAKTKPREEQFNSTYRVVSVLTVLHQDWLNGKEYKCKVSNKGLPSSIEKTISKAKGQPREPQVYTLPPCQEEMTKNQVSLWCLVKGFYPSDIAVEWESNGQPENNYKTTPPVLDSDGSFFLYSRLTVDKSRWQEGNVFSCSVMHEALHNHYTQKSLSLSLG
# heavy 2: QVQLQQPGAELVKPGASVKMSCKASGYTFTSYNMHWVKQTPGRGLEWIGAIYPGNGDTSYNQKFKGKATLTADKSSSTAYMQLSSLTSEDSAVYYCARSTYYGGDWYFNVWGAGTTVTVSAASTKGPSVFPLAPCSRSTSESTAALGCLVKDYFPEPVTVSWNSGALTSGVHTFPAVLQSSGLYSLSSVVTVPSSSLGTKTYTCNVDHKPSNTKVDKRVESKYGPPCPPCPAPEFLGGPSVFLFPPKPKDTLMISRTPEVTCVVVDVSQEDPEVQFNWYVDGVEVHNAKTKPREEQFNSTYRVVSVLTVLHQDWLNGKEYKCKVSNKGLPSSIEKTISKAKGQPREPQVCTLPPSQEEMTKNQVSLSCAVKGFYPSDIAVEWESNGQPENNYKTTPPVLDSDGSFFLVSRLTVDKSRWQEGNVFSCSVMHEALHNHYTQKSLSLSLG
# light 1: QIVLSQSPAILSASPGEKVTMTCRASSSVSYIHWFQQKPGSSPKPWIYATSNLASGVPVRFSGSGSGTSYSLTISRVEAEDAATYYCQQWTSNPPTFGGGTKLEIKRTVAAPSVFIFPPSDEQLKSGTASVVCLLNNFYPREAKVQWKVDNALQSGNSQESVTEQDSKDSTYSLSSTLTLSKADYEKHKVYACEVTHQGLSSPVTKSFNRGEC
# light 2: DIVMTQSPDSLAVSLGERATINCKSSQSLLNSRTRKNYLAWYQQKPGQPPKLLIYWASTRQSGVPDRFSGSGSGTDFTLTISSLQAEDVAVYYCTQSHTLRTFGGGTKVEIKPDIQNPDPAVYQLRDSKSSDKSVCLFTDFDSQTQVSQSKDSDVYITDKCVLDMRSMDFKSNSAVAWSQKSDFACANAFQNSIIPEDTFFPSPESS
# B2: W3278-U3T2.F18R-1.uIgG4.SP (bispecific antibody)
# heavy 1: EVQLVESGGGLVQPGRSLRLSCAASGFTFNDYAMHWVRQAPGKGLEWVSTISWNSGSIGYADSVKGRFTISRDNAKKSLYLQMNSLRAEDTALYYCAKDIQYGNYYYGMDVWGQGTTVTVSSASTKGPSVFPLAPCSRSTSESTAALGCLVKDYFPEPVTVSWNSGALTSGVHTFPAVLQSSGLYSLSSVVTVPSSSLGTKTYTCNVDHKPSNTKVDKRVGGGGSGGGGSQVQLVQSGAEVKKPGSSVKVSCKASGYSFTTYYIHWVRQAPGQGLEWMGWIFPGNDNIKYSEKFKGRVTITADKSTSTAYMELSSLRSEDTAVYYCAIDSVSIYYFDYWGQGTLVTVLEDLKNVFPPEVAVFEPSEAEISHTQKATLVCLATGFYPDHVELSWWVNGKEVHSGVCTDPQPLKEQPALQDSRYALSSRLRVSATFWQNPRNHFRCQVQFYGLSENDEWTQDRAKPVTQIVSAEAWGRYGPPCPPCPAPEFLGGPSVFLFPPKPKDTLMISRTPEVTCVVVDVSQEDPEVQFNWYVDGVEVHNAKTKPREEQFNSTYRVVSVLTVLHQDWLNGKEYKCKVSNKGLPSSIEKTISKAKGQPREPQVYTLPPCQEEMTKNQVSLWCLVKGFYPSDIAVEWESNGQPENNYKTTPPVLDSDGSFFLYSRLTVDKSRWQEGNVFSCSVMHEALHNHYTQKSLSLSLG
# heavy 2: EVQLVESGGGLVQPGRSLRLSCAASGFTFNDYAMHWVRQAPGKGLEWVSTISWNSGSIGYADSVKGRFTISRDNAKKSLYLQMNSLRAEDTALYYCAKDIQYGNYYYGMDVWGQGTTVTVSSASTKGPSVFPLAPCSRSTSESTAALGCLVKDYFPEPVTVSWNSGALTSGVHTFPAVLQSSGLYSLSSVVTVPSSSLGTKTYTCNVDHKPSNTKVDKRVESKYGPPCPPCPAPEFLGGPSVFLFPPKPKDTLMISRTPEVTCVVVDVSQEDPEVQFNWYVDGVEVHNAKTKPREEQFNSTYRVVSVLTVLHQDWLNGKEYKCKVSNKGLPSSIEKTISKAKGQPREPQVCTLPPSQEEMTKNQVSLSCAVKGFYPSDIAVEWESNGQPENNYKTTPPVLDSDGSFFLVSRLTVDKSRWQEGNVFSCSVMHEALHNHYTQKSLSLSLG
# light 1: not shown
# light 2: not shown
# light 3: B1 light 2 with Q61K, H98F, T99I
# notes: Human IgG4 (S228P) knobs-into-holes, same F18R-1 format as m3, so L1 probably stands twice; also called W3278-U3T2.F18R-1.ulgG4.SP
# Columns and labels:
# [1] = target: T1, CD20 on Raji cells (CD20+/CD3- cells) (human, UniProt P11836 1-297); assay: cell-based or functional assay
# T1 sequence (looked up): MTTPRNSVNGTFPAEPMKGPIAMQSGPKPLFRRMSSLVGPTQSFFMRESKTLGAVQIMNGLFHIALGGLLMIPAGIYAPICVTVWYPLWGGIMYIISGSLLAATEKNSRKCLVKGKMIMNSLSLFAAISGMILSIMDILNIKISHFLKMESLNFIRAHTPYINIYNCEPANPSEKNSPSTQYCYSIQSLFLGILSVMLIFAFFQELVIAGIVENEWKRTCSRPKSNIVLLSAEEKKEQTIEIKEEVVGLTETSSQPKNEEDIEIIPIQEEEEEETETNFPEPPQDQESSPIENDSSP
# [2] = target: T1, CD20 on Raji cells (CD20+/CD3- cells); assay: cell-based or functional assay; remark: listed apart in the source
# [3] = target: T1, CD20 on Raji cells (CD20+/CD3- cells); assay: cell-based or functional assay; remark: listed apart in the source
# [4] = target: T1, CD20 on Raji cells (CD20+/CD3- cells); assay: cell-based or functional assay; remark: listed apart in the source
# [5] = target: T1, CD20 on Raji cells (CD20+/CD3- cells); assay: flow cytometry on Raji cells (CD20+/CD3-)
# Description: (§1) The binding of W3278 BsAb to target cells was determined by flow cytometry. Briefly, 1×10⁵/well of target cells (CD3+/CD20− cells or CD20+/CD3− cells) were incubated with serial dilutions of W3278 BsAb or human IgG4 isotype control antibody at 4° C. for 60 minutes. After incubation, cells were washed twice with cold 1% BSA/1×PBS and Alexa Fluor647 conjugated Goat anti-human IgG Fc (Jackson-109-605-098) was then added and incubated for 30 minutes at 4° C. After washing twice, the geometric mean fluorescence (MFI) of stained cells was measured using a FACS Canto II cytometer (BD Biosciences). Wells containing no antibody or fluorescent secondary antibody only were used to establish background fluorescence. The EC₅₀ values of cell binding were determined using GraphPad Prism 5 software (GraphPad Software, La Jolla, Calif.) with values calculated using a four-parameter non-linear regression analysis.
# [6] = target: T2, CD3 on Jurkat cells (CD3+/CD20- cells) (human, UniProt P07766 23-207; P04234 22-171; P09693 23-182); assay: flow cytometry on Jurkat cells (CD3+/CD20-)
# T2 construct: whole, on cells; also called human CD3; Jurkat 2B8
# T2 sequence (P07766 23-207, chain 1 of 3): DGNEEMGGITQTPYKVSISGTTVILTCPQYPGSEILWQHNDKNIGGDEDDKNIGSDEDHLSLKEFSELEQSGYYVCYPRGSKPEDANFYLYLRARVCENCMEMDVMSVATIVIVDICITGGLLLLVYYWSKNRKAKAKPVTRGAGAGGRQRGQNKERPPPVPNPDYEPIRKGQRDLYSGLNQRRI
# T2 sequence (P04234 22-171, chain 2 of 3): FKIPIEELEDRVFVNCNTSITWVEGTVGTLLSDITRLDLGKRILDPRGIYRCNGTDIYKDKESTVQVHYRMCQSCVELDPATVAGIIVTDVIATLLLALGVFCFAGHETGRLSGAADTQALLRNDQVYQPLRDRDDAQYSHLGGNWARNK
# T2 sequence (P09693 23-182, chain 3 of 3): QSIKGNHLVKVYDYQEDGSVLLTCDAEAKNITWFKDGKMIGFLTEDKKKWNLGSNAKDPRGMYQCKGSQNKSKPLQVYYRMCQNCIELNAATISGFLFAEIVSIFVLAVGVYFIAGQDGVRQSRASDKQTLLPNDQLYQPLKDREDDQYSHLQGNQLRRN
# Description: as §1
binder,measurement,setting,value
B1,"CD4+ T cell IL-2 release EC50, with Raji cells",[1],11.4 pM
same,"CD4+ T cell TNF-a release EC50, with Raji cells",[1],13.5 pM
same,"T cell CD69 expression EC50 (Table 5B), CD4+/Raji",[2],0.2 pM
same,"T cell CD69 expression EC50 (Table 5B), CD8+/Raji",[2],0.4 pM
same,"T cell CD69 expression EC50 (Table 5A as titled), CD4+/Raji",[3],0.6 pM
same,"T cell CD69 expression EC50 (Table 5A as titled), CD8+/Raji",[3],0.8 pM
same,"cytotoxicity EC50, NAMALWA cells, CD8+ T cells as effectors",[4],46.8 pM
same,"cytotoxicity EC50, Raji cells, CD8+ T cells as effectors",[4],0.52 pM
same,"cytotoxicity EC50, Ramos cells, CD8+ T cells as effectors",[4],1.25 pM
B2,EC50,[5],1.3 nM
same,TOP MFI,[5],55400 MFI
same,EC50,[6],26.6 nM
same,TOP MFI,[6],536 MFI
